According to the Immune Epitope Database (IEDB):

Tests used:
HLA-B*15:01 [1] = experiment: IEDB peptide-MHC binding, purified MHC/competitive/radioactivity; filed as Kd, often an IC50 or EC50 that approximates it; ≥ and ≤ were set here for values at or beyond the usual limits of such assays
HLA-A*24:02 = experiment: IEDB peptide-MHC binding, purified MHC/competitive/fluorescence; ≥ and ≤ were set here for values at or beyond the usual limits of such assays
HLA-A*02:02 = experiment: IEDB peptide-MHC binding, purified MHC/competitive/radioactivity; filed as Kd, often an IC50 or EC50 that approximates it; ≥ and ≤ were set here for values at or beyond the usual limits of such assays
HLA-A*68:02 = experiment: as above; conditions: source organism: Trypanosoma cruzi
HLA-A*02:06 = experiment: as above
HLA-A*02:01 = experiment: as above
HLA-A*02:03 = experiment: as above
HLA-B*07:02 = experiment: as above
HLA-A*30:02 = experiment: as above; conditions: source organism: Dengue virus 3 Martinique/1243/1999
HLA-A*01:01 = experiment: as above; conditions: source organism: Dengue virus 3 Martinique/1243/1999
HLA-A*30:01 = experiment: as above; conditions: source organism: Dengue virus 3 Martinique/1243/1999
HLA-B*35:01 = experiment: as above; conditions: source organism: Dengue virus 2 Jamaica/1409/1983
HLA-B*51:01 = experiment: as above; conditions: source organism: Dengue virus 2 Jamaica/1409/1983
HLA-B*53:01 = experiment: as above; conditions: source organism: Dengue virus 2 Jamaica/1409/1983
HLA-B*15:01 [2] = experiment: IEDB peptide-MHC binding, purified MHC/competitive/fluorescence; filed as Kd, often an IC50 or EC50 that approximates it; ≥ and ≤ were set here for values at or beyond the usual limits of such assays; conditions: source organism: Bacillus cereus G9241
HLA-A*32:01 = experiment: IEDB peptide-MHC binding, purified MHC/competitive/radioactivity; filed as Kd, often an IC50 or EC50 that approximates it; ≥ and ≤ were set here for values at or beyond the usual limits of such assays; conditions: source organism: Vaccinia virus WR
HLA-B*40:01 = experiment: IEDB peptide-MHC binding, purified MHC/direct/fluorescence; filed as Kd, often an IC50 or EC50 that approximates it; ≥ and ≤ were set here for values at or beyond the usual limits of such assays; conditions: source organism: Salmonella enterica
HLA-B*18:01 = experiment: as above; conditions: source organism: Salmonella enterica
[3] = source organism: Vaccinia virus WR
[4] = source organism: Zaire ebolavirus
[5] = source organism: Trypanosoma cruzi
[6] = source organism: Dengue virus 3 Martinique/1243/1999

## VMTKWCAPF
HLA-B*15:01 [1]; [3]
  Kd: 1.86 nM

## LLFILFYFA
HLA-B*15:01 [1]; [3]
  Kd: 242 nM

## EGVVAFLIL
HLA-A*24:02; [4]
  IC50: ≥ 80300 nM

## QARFSGLLI
HLA-A*24:02; [4]
  IC50: 16700 nM

## GLLPSLLLLG
HLA-A*02:02; [5]
  Kd: 261 nM
HLA-A*68:02
  Kd: 3750 nM
HLA-A*02:06; [5]
  Kd: 127 nM
HLA-A*02:01; [5]
  Kd: 120 nM
HLA-A*02:03; [5]
  Kd: 137 nM

## TPKAKRGTAQ
HLA-B*07:02; source organism: Dengue virus 1 Singapore/S275/1990
  Kd: 1410 nM

## AYQGDYKLF
HLA-A*24:02; [4]
  IC50: 540 nM

## ISKIPGGAMY
HLA-A*30:02
  Kd: 9.35 nM
HLA-B*15:01 [1]; [6]
  Kd: 136 nM
HLA-A*01:01
  Kd: ≥ 23800 nM

## LSRNSTHEM
HLA-A*30:01
  Kd: 106 nM
HLA-B*15:01 [1]; [6]
  Kd: 39.7 nM

## SLFIESSICL
HLA-A*02:02; [3]
  Kd: 99.2 nM
HLA-A*02:06; [3]
  Kd: 982 nM
HLA-A*02:01; [3]
  Kd: 2 nM
HLA-A*02:03; [3]
  Kd: 293 nM

## FPQSNAPIM
HLA-B*35:01
  Kd: 13600 nM
HLA-B*07:02; source organism: Dengue virus 2 Jamaica/1409/1983
  Kd: 12.1 nM
HLA-B*51:01
  Kd: 632 nM
HLA-B*53:01
  Kd: 1.8 nM

## KYYIKNIGN
HLA-A*24:02; source organism: Vaccinia virus
  IC50: ≥ 101000 nM

## LTVVPLMAF
HLA-B*15:01 [2]
  Kd: 147 nM

## LTYFCFVAL
HLA-A*32:01
  Kd: 615 nM
HLA-B*15:01 [1]; [3]
  Kd: 28.5 nM

## MSIVCIVAA
HLA-B*15:01 [1]; [3]
  Kd: 3070 nM

## LKVFLPNPA
HLA-A*24:02; source organism: Variola virus
  IC50: 20300 nM

## YPVWLTKHL
HLA-B*40:01
  Kd: 2930 nM
HLA-B*18:01
  Kd: 2150 nM

## LVKRFSTGLF
HLA-B*15:01 [1]; source organism: Dengue virus 4 Philippines/H241/1956
  Kd: 256 nM
